Assay results: patent US20130122005A1 (published 2013)
Numbering of substitutions follows the chain as printed.

B1: antibody 60833 (antibody, human IgG1, lambda, V domains shown)
VH: QVELVESGGGLVQPGGSLRLSCAASGFTFTSYWMSWVRQAPGKGLELVSSITSYGSFTYYADSVKGRFTISRDNSKNTLYLQMNSLRAEDTAVYYCARNMYTHFDSWGQGTLVTVSS
VL: DIVLTQPPSVSGAPGQRVTISCSGSSSNIGSNSVSWYQQLPGTAPKLLIYDNSKRPSGVPDRFSGSKSGTSASLAITGLQSEDEADYYCQSRDTYGYYWVFGGGTKLTVLG
B2: antibody 60814 (antibody, human IgG1, lambda, V domains shown)
VH: QVELVESGGGLVQPGGSLRLSCAASGFTFSNYWMHWVRQAPGKGLEWVSGISGWSSWTYYADSVKGRFTISRDNSKNTLYLQMNSLRAEDTAVYYCARFGIDAYTKVYFDYWGQGTLVTVSS
VL: DIELTQPPSVSVAPGQTARISCSGDNIPLKYVSWYQQKPGQAPVLVIHDDNKRPSGIPERFSGSNSGNTATLTISGTQAEDEADYYCSSWDTLDIFNVFGGGTKLTVLG
B3: antibody 60819 (antibody, human IgG1, lambda, V domains shown)
VH: B2 VH
VL: B2 VL with S88Q, W90Y, T92Y, L93F, D94P, I95K, N97V

Key:
Assay in all cases: cell-based or functional assay
[1] = molecular target: T1, human IGF-2 (human, UniProt P01344 25-91)
[2] = molecular target: T2, human IGF-1 (human, UniProt P05019 49-118)
[3] = molecular target: T1, human IGF-2; remark: listed apart in the source
[4] = molecular target: T2, human IGF-1; remark: listed apart in the source
[5] = molecular target: T1, human IGF-2; remark: listed apart in the source

T1 sequence (P01344 25-91 limits assumed): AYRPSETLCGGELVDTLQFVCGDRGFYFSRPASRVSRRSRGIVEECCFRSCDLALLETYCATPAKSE
T2 sequence (P05019 49-118): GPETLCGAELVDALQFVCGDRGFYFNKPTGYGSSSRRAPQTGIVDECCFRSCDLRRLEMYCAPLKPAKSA

Binder | IC50, IGF-2 (100 ng/mL) induced IGF-1R phosphorylation, cell-based ELISA [1] [µg/mL] | IC50, IGF-1 (20 ng/mL) induced IGF-1R phosphorylation, cell-based ELISA [2] [µg/mL] | IC50, IGF-2 induced COLO 205 cell proliferation [3] [µg/mL] | IC50, IGF-2 induced MCF7 cell proliferation [3] [µg/mL] | IC50, IGF-1 induced COLO-205 cell proliferation [4] [µg/mL] | IC50, IGF-1 induced MCF7 cell proliferation [4] [µg/mL] | IC50, IGF-2 (100 ng/mL) induced IR-A phosphorylation, cell-based ELISA [5] [µg/mL]
B1 | 1.12 | 0.09 | 0.632 | 0.0812 | 0.165 | 0.0386 | 0.82
B2 |  |  | 0.576 | 0.0782 | 0.135 | 0.0241 | 
B3 |  |  | 0.101 | 0.0408 | 0.217 | 0.054 | 
